This is an account of results in paper doi:10.1101/2019.12.11.872267 (bioRxiv, 2019).

This series concerns the molecule itself. Description: negative stain electron microscopy.

B1: Drosophila P5CS, purified from E. coli (enzyme, UniProt Q9VNW6 1-776, looked up)
chain: MLQNSFKLAQSLRNGFYRNAWRAFSSHGPRQPLVSPERRLEKAHPTFTERSQLKYARRLVVKLGSAVITREDNHGLALGRLASIVEQVAECHLEGREVMMVTSGAVAFGKQKLAQELLMSLSMRETLNPKDSKEFDGATLEPRAAAAVGQSGLMSLYDAMFAQYGVKIAQVLVTKPDFYNEETRNNLFCTLSELISLNIVPIINTNDAVSPPMFIRDDEPAGGARRGIPIKDNDSLSAMLAAEVQADLLILMSDVDGIYNKPPWEDGAKLMHTYTSDDSNSIEFGKKSKVGTGGMDSKVKAATWALDRGVSVVICNGMQEKAIKTIIGGRKVGTFFTEATESANAVPVEVMAENARTGSRQMQALTPAQRASAVNTLADLLVSREKFILDANAKDLAEAQKSGLAKPLLSRLSLNPAKLKNLSVGLKQIAEDSHKNVGRVLRRTRLADQLELKQVTVPIGVLLVIFESRPDSLPQVAALAMASANGLLLKGGKEAAHSNKALMELVKEALATVGAEHAVSLVSTREEISDLLSMENHIDLIIPRGSSDLVRSIQQQSLHIPVLGHAEGVCHVYIDRDADLEKALRIARDAKCDYPAACNAMETLLIHEDLMSGAIFGDVCNMLKREGVKIYAGPRLNQQLTFGPPAAKSLKHEYGALECCIEVVPSLDEAINHIHTYGSSHTDVIVTENDAAARQFLGSVDSACVFHNASSRFADGFRFGLGAEVGISTARIHARGPVGVEGLLTTKWILEGQDHAAADFAEGGGRTWLHETLPLD
B1: the binding result is “binds”.
